Data on 41 sequences can be found in the nanobody polyreactivity screen of Harvey et al. (2022).

A short description of the data set: yeast display, Sf9 membrane polyspecificity reagent, FACS + sequencing; frameworks hold sequencing errors. The method, boiled down:
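Nanobodies came from a synthetic yeast display library in Saccharomyces cerevisiae BJ5465, induced with galactose for 36–48 hours and stained for 1 hour at 4 °C with 10% biotinylated, detergent-solubilized Sf9 membrane reagent. Cells were enriched on streptavidin microbeads and then FACS-sorted, with low and high (top ~1%) gates set on anti-HA fluorescence for expression and streptavidin fluorescence for reagent binding. Each polyreactivity label reflects the gate a clone came from. Genes were amplified by colony PCR, sequenced by MiSeq 2 × 250 and filtered by CDR length.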
As to “QVQLVESGAGLVQAGGSLRLSCAASGRTFTSNSMGLYIQAPGKERELVASISFRGGRTYYADSVKVRFTISRDNAKNTVYLQMNSLKPEDTAVYYCVSGTKRTGYGYWGQGTLVTVSS”, the “polyreactivity (PSR sort gate)” value is reported as “high polyreactivity”. The result for “QVQLVESGAGLVQAGGSLRLSCAASGSIFSPYDMGWYRPAPGKERELVAAISRSGRTHYADSVKGRFTISRDNAKNTVYLQMNSLKPEDTAVYYCAAGVVSGYYYWGHGTQVTVSS” reads “high polyreactivity”.

For the sequence “QVQLVESGAGLVQAGGSLRLSCAASGSIFYDYAMGVYRQAPGKERELVAAISSSGITYYADSVKGRFTISRDNAKNTVYLQMNSLKPVDTAVYYCNARSYLRDYYYWGQGTQVTVSS”, the “polyreactivity (PSR sort gate)” value is given as “high polyreactivity”. For the sequence “QVQLVESGAGLVQAGGSLRLSCAASGSILKKYGMGLSRQAPGKERELVARISKSGGSTFYADSVKGRFTISRDNAKNTVYLQMNSLKPEDTAVYYCATLKYPYATSQGYDYWGQGTQVTVSS”, the “polyreactivity (PSR sort gate)” value is reported as “high polyreactivity”.

Consider “QVQLVESGAGLVQAGGSLRLSCAASGSTCPGNAMGWYRQAPGKERELVAVINSGGGTNYADSVKGRFTISRDNAKNTVYFQINSLNPEDTAVYYCAKGYRRSFIGYWYLKYGYWGQGTQVTVSS”, for which the “polyreactivity (PSR sort gate)” value is on record as “high polyreactivity”. In the case of “QVQLVESGAGLVQAGGSLRLSCAASGSTFDAYALGWSRPAPGKERELVAGISSGGSYEFADSVKGRFTISRDYAKNTVYVQMNSLKPEDTAVYYCAADSRQSDYYYQPTKFDYWGQGTQVTVSS”, the “polyreactivity (PSR sort gate)” value is “low polyreactivity”.

For the sequence “QVQLVESGAGLVQAGGSLRLSCAASGSTFHYYAMGLYRQAPGKERELVATITWRGGFTYYADSVKGRFTISRDNAKNTVYLQMNSLKPEDTAGYYCTDYYVRRYRDPRLYYWGQGTQVTVSS”, the “polyreactivity (PSR sort gate)” value was “high polyreactivity”. With “QVQLVESGAGLVQAGGSLRLSCAASGSTFRPNVMGWSRQAPGKERELVAAITYSGRSTYYADSVKGRFTISRDNAKNTVYLQMNTLKPEDTAVYYCAARTWLRYCYWGQGTQVTVSS”, the “polyreactivity (PSR sort gate)” value is reported as “high polyreactivity”. On to “QVQLVESGAGLVQAGGSLRLSCAASGSTFYINTMGLYRQAPGKEREFVAAITWSGGSTYYADSVKGRFTISRDNAKNSGYLQMNSLKPEDTAVYYSAADLYVGDMDYRGQGTQVTVSS”, for which the “polyreactivity (PSR sort gate)” value was “low polyreactivity”. As to “QVQLVESGAGLVQAGGSLRLSCAASGSTVAGNAMGGYRQAPGTERELVAAIDSSTGSTYYADCVKGRFTISRDNAKITVYLLMNSLKPEDTAVYYCADDQVHKREYDYWGQGTQVTVSS”, the “polyreactivity (PSR sort gate)” value was “low polyreactivity”. Regarding “QVQLVESGAGLVQAGGSLRLSCAASVRIFDSYAMGWSRQAPGKERELVAAITGSGGRTYYAESVKGRFTISRDNAKNTVYLQMNSQKPEYTAVYYCARALGQRRYDYWGQGTHVTVSS”, the “polyreactivity (PSR sort gate)” value was “high polyreactivity”. “QVQLVESGAGLVQAGGSLRLSCAAYGSIFIIYAMGWYRQAPGKERELVAAINTSGTSTYYADSVKGRFTISRDNAKNTVYLQMNSLKPEDTAVYYCAAAGRRSYKYYYWGQGTQVTVSS”: the “polyreactivity (PSR sort gate)” value is listed as “high polyreactivity”. As for “QVQLVESGAGLVQAGGSLRLSCADSGSIFYYYAMGWYRQAPGKEREFGAAIRESVGSTYYADSVKGSFTISRDNAKNTVYLQMNSRKPEDTAVYYCAVRRPRRNYNYPYDYWGQGTQVTVSS”, the “polyreactivity (PSR sort gate)” value was “low polyreactivity”. For the sequence “QVQLVESGAGLVQAGGSLRLSCAPSGRIFDKYAMGWYRQAPGTERELVAAIDWSGGSTYYADSVKGRFTISRDNAKNTVYLQMNCLKPEDTAVYYCAAYWYYEDGQSEARLYGYDYWGQGTQVTVSS”, the “polyreactivity (PSR sort gate)” value was “low polyreactivity”. For the sequence “QVQLVESGAGLVQAGGSLRLSCAPSGRIFTPYAMGWYRQAPGKERELVAVIRDGSTYYADSVKGRFTISRDNSKNTVYLQMNSLKPEDTAVYYCRYDIWVWWSGAYDYWGQGTQVTVSS”, the “polyreactivity (PSR sort gate)” value was “low polyreactivity”. As for “QVQLVESGAGLVQAGGSLRLSCAPSGSTFGDNAMGWYRQAPGKERELVAAISSGGGSTYYADSVKGRFTISRDNAKNTVYLQMNSLKPEDTAVYYCAADGTLTLYRYILDYWGQGTQVTVSS”, the entry is “low polyreactivity”; as for “QVQLVESGAGLVQAGGSLRLSCASSGFILTGYTMGWYRQAPGKERELVAAISWSGARTYYADSVKGRFTISRDNAKNTVYLQMNSLKPEDTAVYYCARDYYRPTQRYDYWGQGTQVTVSS”, “high polyreactivity”. The result for “QVQLVESGAGLVQAGGSLRLTCAASGSTFNRYVMGWYRQAPGKERDFVATISQGGGSTYYADSVKGRFTISRDNAKNTVYLHMNSLKPDVTAVYYCAAVSTRQYRYPHEYWGQGTQVTVSS” reads “high polyreactivity”; that for “QVQLVESGAGLVQAGGSLRVSCAASGRTFAHYAMGWYRQAPGKERELVAAISSGASTNYADSVKGRFTISRDNAKNTVYLQMNSLKPEDTAVYYCAKQAKYHQGTYDYWGQGTQVTVSS”, “low polyreactivity”; that for “QVQLVESGAGLVQAGGSLRVSCAASGSTFDSYAMGLYRQAPGKERELVAAITNGGSTYYADSVKGRFTISRDHAKNTVYLQMNRLKPEDTAVYDCATEDYLLDYLYDYWGPGTQVTVSS”, “low polyreactivity”. The result for “QVQLVESGAGLVQAGGSLSLSCAASGSIWLYAMGWYRQAPGKEREFVAAITRRGSSTYYADSVKGRFTISRDNAKNPVLLQMNSLKPEDTAVYYCAGVSQYGKWRGDYWGQGTQVTVSS” reads “high polyreactivity”.

Consider “QVQLVESGAGLVQAGGSRRLSCAASGSIFGVNAMGGYRQAPGKERELVASITGGDSTNYADSVKGRFTISRDNAKNTVYLQMNSLKPEDTAFYYCAKDHYYRYEEGDYWGQGTQVTVSS”, for which the “polyreactivity (PSR sort gate)” value is “low polyreactivity”. As for “QVQLVESGAGLVQAGRSLRLSCAASGRTLSRFAMGGYRQAPGKERELVAGITSGGDTRTYYADSVKGRFTISRDYAKNTVYLQMNSLKPEDPAVYYCWGQVTQVTVSS”, the entry is “low polyreactivity”.

With “QVQLVESGARLVQAGGSLRLRCAPSGSIFDGYAMGWYRQAPGKEREFVAAISKGGTRTYYADSVKGRFTISRDNAKNTVYLQMNSLIPEDSAVFYCNAYYRREPDDGDYDYWGQGTQVTVSS”, the “polyreactivity (PSR sort gate)” value is given as “high polyreactivity”. As for “QVQLVESGEGLVQAGGSLRLSCAASGITFDAYTMGWYRQAPGKERELVAAITWSSTSTYYADSVKGRFTISRDNAKNTVYLQMNSLKPEDTAVFYCAAYRVGDYYWGQGTKVTVSS”, the entry is “low polyreactivity”; as for “QVQLVESGGALDQAGGSLRLSCAASGSTFYYYAMGWYRQAPGKERELVAAISTSDGSTYYADSVKGRFTISRDNAKNTVYLQMNSLKPEDTAVYYCAADSHDRFPSYYYWGQGTQVTVSS”, “low polyreactivity”. For the sequence “QVQLVESGGALGQAGGRLRLTCAASGSTFSIYGMGWYRQAHGKEREFVAALRTSGGRTYADSVKGRFTISRDNAKNTVYLQLNSLKPDDPAVDYCAAHVNYIYDWGQGTQVTVSS”, the “polyreactivity (PSR sort gate)” value is given as “high polyreactivity”. Regarding “QVQLVESGGALHQAGGSLRLNCAASGRTFGANAMGWYRQAPGKERELVAAISSSDDSTYYADSVKGRFTISRDNAKKTVYLQMNSLKPEDTAVYYCAAEDVYRQLDYWGQGTQVTVSS”, the “polyreactivity (PSR sort gate)” value is given as “low polyreactivity”. The result for “QVQLVESGGALVKAGGSLRLSCAASGYIFYGYAMGRYRQAPGKEWELVAAITVRGGSTYYADSVKGRFTISRDNAKNTVYLQMNSLKPEDTAVYYCAAAPQFTFGVGYWGQGTQVTVSS” reads “low polyreactivity”; that for “QVQLVESGGALVQAGGSLGLICAASGSIFRWYAMGWYRQAPGKERELVASINSSGDRTYYADSVKGRFTISRDKAKKTVFLQMNSLNPEDTAVYNCAAQISVKVDFWGQGTQVTVSS”, “high polyreactivity”; that for “QVQLVESGGALVQAGGSLRFSCASSGRIFSSNTMGWYRQAPGKERELVAAISRGSITYYAHSVKGRFTISRDNAKNTVYLQMNSLKPEDTAVYYCAAGVGLDNYGYGYWGQGTQVTVSS”, “low polyreactivity”.

For “QVQLVESGGALVQAGGSLRLICAASGGTFTNYAMGWYSQAPGKERELVAAITDSGATTYYADSVKGRFTNSRDNAKNTVYLQMNSLKPEDTAVYYCNAELDLYTDFDYWGQGTQVTVSS”, the “polyreactivity (PSR sort gate)” value was “low polyreactivity”. With “QVQLVESGGALVQAGGSLRLSCAASGCIFAPYAMGWYRQAPGKERELVADITEDTGITYYADSVKGRFTISRDNAKNNVYLHMNSLKPVDTAVYYCNAEFYFYDYWGQGTQVTVSS”, the “polyreactivity (PSR sort gate)” value is listed as “low polyreactivity”. As for “QVQLVESGGALVQAGGSLRLSCAASGFIFFQYAMGWYRQAPGKERELVAAISGSGVTTYYADSVKGRFTISRDNAKNTVYLQMNSLKPEDTAVYYCNAALRWKYDWGQGTQVTVSS”, the entry is “low polyreactivity”; as for “QVQLVESGGALVQAGGSLRLSCAASGFTFLIYAKGWYIQAPGKERELVAAITWRGSGTYYADCVKGRFTISRDNGQNTVYLQMNSLKPEDSAVYYCAARTARRTYDYWGQGTQVTVSS”, “low polyreactivity”.

Consider “QVQLVESGGALVQAGGSLRLSCAASGGIFSYYAMGWYRQAPGKERELVAAMSWSGTSTYYADSVKGRFTISRDNAKNTVYLQMNSLNQEDTAVYYCNKVTYSRAQYIGGDGYFWGEGTQVTVSS”, for which the “polyreactivity (PSR sort gate)” value is listed as “high polyreactivity”. For the sequence “QVQLVESGGALVQAGGSLRLSCAASGIIFNLYAKGWYRPAPGKEMELVAAITSSGTSTYYADSVKGRFTISRDNAKNTVYLQMNSLSPEDTAVYYCAAERGFYYFVEYDYWGQGTQVTVSS”, the “polyreactivity (PSR sort gate)” value is “high polyreactivity”. As to “QVQLVESGGALVQAGGSLRLSCAASGIILLRYAMGWYRQAPGKERELVAAISYSGGSTYYADSVKGRFTISRDNAKNTVYLQMNSLKPEDTAVYYCNTVGPRRYSYDYWGQGTQVTVSS”, the “polyreactivity (PSR sort gate)” value is recorded as “high polyreactivity”. On to “QVQLVESGGALVQAGGSLRLSCAASGIILYYYAMGWYRQAPGKERELVAAISSGGNTYYADSVKGRFTISRDNAKNTVYLQMNSLKPEDTAVYYCAAVTVIGGEYDYWGQGTQVTVSS”, for which the “polyreactivity (PSR sort gate)” value is recorded as “low polyreactivity”. The result for “QVQLVESGGALVQAGGSLRLSCAASGITFYDNAMGWYRQAPGKERELVAGISYSGGRTYYADSVKGRFTISRDNAKNTVYLQMNSLIPEDTAVDYCNARFGKYRSRQGYYYWGQGTQVTVSS” reads “high polyreactivity”; that for “QVQLVESGGALVQAGGSLRLSCAASGITFYFYAMGWYIHAPGKEWELVAAIRSSGDSTYYADSVKGRFTISRDNAKNTVYLQMNSRKPEDTAVYYCAAYSHHQFSRSEYYYWGQGTQVTVSS”, “low polyreactivity”.
